# According to patent publication US20180002754A1:
# How the values were obtained:
# [1] = biological target: Frizzled-2 (human Fzd2) (human) (UniProt Q14332); assay: SPR (Biacore) binding analysis, text to Table 1 and FIG. 10
# [2] = biological target: Frizzled-2 (human Fzd2) (human) (UniProt Q14332); assay: SPR (BioCore study performed by Precision Antibody), legend of FIG. 10
# [3] = biological target: Frizzled-2 (human Fzd2) (human) (UniProt Q14332); assay: SPR (Biacore, by Precision Antibody); antibody as ligand, Frizzled-2 as analyte at 0-500 nM
# Chain of UniProt Q14332 (Q14332 24-247 limits assumed): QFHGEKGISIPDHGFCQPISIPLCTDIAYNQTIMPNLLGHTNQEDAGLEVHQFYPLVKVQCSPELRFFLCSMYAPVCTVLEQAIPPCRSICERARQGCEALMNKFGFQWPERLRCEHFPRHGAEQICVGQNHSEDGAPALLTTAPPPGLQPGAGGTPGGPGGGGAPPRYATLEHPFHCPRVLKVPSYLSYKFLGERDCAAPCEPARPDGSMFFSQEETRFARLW
substance,measurement,setting,value
anti-Fzd2 antibody (R & D Systems; MAB1307),Kd,[1],< 20 nM
same,Kd,[2],20 nM
same,Ka,[3],5.2e+07 M⁻¹
same,Kd,[3],19 nM
same,koff,[3],0.00074 s⁻¹
same,kon,[3],39000 M⁻¹ s⁻¹
